Measured values reported in the DeepSol protein solubility set.

Assay: soluble on expression in E. coli; label from the status in PepcDB or PDB records

Question: For “MAGTISDYGGRQQIWNLGNNIIDTKKLVDLELQALEMKKSPYTTQKQTLTNEKNVYASMKKEFGNLVQVFKDLYAFKGDEKKTTLSKDGFMKAQADAAAIPGTYTITVERVAERHQITTAPLTPSKTPESMEQKFSLDLKLGVDDVFQINGKEVKISKDMTYKDLVNKINNGNYGASVYTLGDQLFFTSTTAGEAGELKLTDGANGFLQNIGLVTSAKNPDGTNVVAHQVTGAINAEYTINGIKGTSKTNKIDTIPGLTINLEKETTEPIKLTIEDSDIKNSIDLIKKMKDEYNKAVKSLDLFAGENGVMQGSNVSFAINNAMTGIFKFSQDDKYLFSFGIQIDKKGNMTLDEEKLKTAFKENPESTKQFFFGLNGLGHDTEKKLDGIFGDEGIIGKRSKSIEKQVTDLERKIQDIDTVNKEKQKTIIDKYAKLESQLALLDSQLKTIQAMTKTKSDD”, which “soluble on expression in E. coli” value is on record?
Answer: not soluble

Question: For “MAGTRDYDHLFKLLIIGDSGVGKSSLLLRFADNTFSENYITTIGVDFKIRTMDINGQRVKLQIWDTAGQERFRTITSTYYRGTHGVVVVYDVTNGESFGNVKRWLQEIENNCDSVQKVLVGNKCEENERRVVLESDARNYAQSMNISFFETSAKEDKNVEPMFTCITSLVLTAKLANPQSASKDQSRTGGVSLKDNSGSTNQKKKCKCG”, which “soluble on expression in E. coli” value is on record?
Answer: not soluble

Question: With “MAGVRQHGWRAIPAVCSEYGADTLPDRYRSDGRCLLFRQQAGISALKQELEVKTPYRAMNHPVIGVVTKADLASMEQISLVKCWLREAGAHNVLVTSAVNNNGVTELFALLHTEEGCR” as the sequence, how does the “soluble on expression in E. coli” value read?
Answer: not soluble

Question: With “MAGYALKRLMTEYKELTTRPPEGIIAAPIDEDNFFEWECLITGPEETCFANGVFPARITFPQDYPLSPPKMRFTCGIFHPNIYADGRVCISILHAPGDDPTGYELSNERWSPVQSIEKILLSVVSMLAEPNDESPANVSAAKMWREDRAQFEKIADSLVRKTLCLPASEV” as the sequence, how does the “soluble on expression in E. coli” value read?
Answer: not soluble

Question: With “MAHHHHHHHRSAAGTIWEFDGGACGARTALVKVDRVDRRYQDLVTRGFNGRFRGRPDVVYVVHTADQVVDAVNQAMAAGQRIAVRSGGHCFEGFVDDPAVRAVIDMSQMRQVFYDSGKRAFAVEPGATLGETYRALYLDWGVTIPAGVCPQVGVGGHVLGGGYGPLSRRDGVVADHLYAVEVVVVDASGRARKVVATSAADDPNRELWWAHTGGGGGNFGIVTRYWFRTPGATGTDPSQLLPKAPTSTLRHIVTWDWSALTEEAFTRIIDNHGAWHQSNSAAGTPYASMHSVFYLNSRAAGQILLDIQIDGGLDGAEALLNDFVAAVNEGTGVEPAVQRSTEPWLRATLANKFDTGGFDRTKSKGAYLRKPWTAAQAATLYRHLSADSQVWGEVSLYSYGGKVNSVPETATATAQRDSIIKVWMSATWMDPAHDDANLAWIREIYREIFATTGGVPVPDDRTEGTFINYPDVDLVDERWNTSGVPWYTLYYKGNYPRLQKVKARWDPRDVFRHALSVRPPG” as the sequence, how does the “soluble on expression in E. coli” value read?
Answer: soluble

Question: Which “soluble on expression in E. coli” value does the source give for “MAHHHHHHLPALKLALEYIVPCMNKHGICVVDDFLGKETGQQIGDEVRALHDTGKFTDGQLVSQKSDSSKDIRGDKITWIEGKEPGCETIGLLMSSMDDLIRHCNGKLGSYKINGRTKAMVACYPGNGTGYVRHVDNPNGDGRCVTCIYYLNKDWDAKVSGGILRIFPEGKAQFADIEPKFDRLLFFWSDRRNPHEVQPAYATRYAITVWYFDADERARAKVKYLTGEKGVRVELNKPSDSVGKDVF” here?
Answer: soluble

Question: With “MAHHHHHHMAANEGNQSCMDALSSITFAQLAGPLQPVYGPSRVPRHQQFVDLVTDSSGMSPFIPFGTQGSANSSTAFPVDNAYLSKRAPPESEGQNRAAYYNNSSASMQTPEKVDKPQMLRQVSVGAPTPSSGMGMTASPATVCRYITHATPGSALLDETCTRTYLRSAPMNFVASTGITTDNAIGAVSNAVLSAAAAALPSVKVSIDDKPTSLAIELEQAYEEHVHESKRRVGDKVKRKEKKVLVTVGFPGVDNVPQMISDGTEEQLLNKEEVEQGKRRRERRQSRGKNKQKGDNNNNNCIFHDGDKFVSNFSSIHADNESHGECGDRKFLVTLRCHGHRDVTAICCLRLSKGKYVIFEADRGVDLGEVINVKELISEPSGNSAPAQVLRCALDEEVEDWKGPLVERENEAVEECRHVCEQLGLTIRVVGAAYQFDRQKLTFMYESDDRVDFRALLQVMFSKFRCRIWMERRGRGHQDNDAHTG” as the sequence, how does the “soluble on expression in E. coli” value read?
Answer: not soluble

Question: Which “soluble on expression in E. coli” value does the source give for “MAHHHHHHMADLRDELDATALFGSGYVCIVGPPSSGKTTLILEYLVARERQAVHSGDGDAAAFCMEYVSARSAPHELLRHLTYRLLPHARRRRLSYECTPLEFSASLVEWVEAHPGQSELHLVVDDADALEYSAEEMNLWLSHYLRAPAEQRCTVILWLISELPLRLSNCFRYHFIARPEANSIVQWLHHQFEEERRLLAGLESEEDDSEHTVNGAPMTTLSADEVNRVVLDAFTYYATHQPMCSSVVSRDVRLLVQRVYQILPPLLLEVAATTSAVPGESGEAAVSASTTADAVKKLNARHFAAAWSQYRSDGGGGTSSAMAVSGAAASAQNTLVMALKRLGYSAVLLAFAAFYGGAVPKRQQHQVFGRIGSGERQPPLHEAKGQSHKAAVLTASAHVVTLRRLGFLYDAMLRMCTPHIDPLEFTTADVALQYVQGFVAWGLLTPVVSQRHRSYHCWIPVSTAPAVGA” here?
Answer: not soluble

Question: With “MAHHHHHHMAEDTITFLRTVGKLKETDRTGWVEHGIPNPESVSDHMYRVAVMCMMCPDEKLDRNKLIRMALCHDAGESIVGDISPKMGVSKEDKYNQEKAAVLHLTGLLEKESPLSRELHELWEEYEAQHTPEAQFLKDIDLLEMVAQAHAYELAHPKKDLSSFFVSGEKIKHPWARNIYETLLRTRSSEK” as the sequence, how does the “soluble on expression in E. coli” value read?
Answer: soluble

Question: For “MAHHHHHHMAKAIGDGDTGDAWWANPEHLAAIDATAAAEAVVSVPHQPEKNTGTGCSSRITAMRYYMKPDTWTQTLLSDEGETARENRTDGEVPHSGSASTGAVTSSDPRGCNSDAHVHHQATSSLLSTASSVVTTTATEEASSLPAASSPLHGLPLHQLIEQHAALVRRLVQVLAPQRQTIPHVIRELCTTRVTSPSSAVASRVCVLPSMDASNAEPMQYTERDVAAAVEQLTSSHPRQPRLRELKSDGYLLMNLEGFADGKTRHKAVNRAYPALALHWPASVQQMDAMERYVDRDVVLDTRKRHPELSGEGSDKKQGQKRDRSRSSTSSNASGADEDGAHKARAPGYTSSPPSPPLGMAASPKRTAPTTSSRRFFQSLREYPRSLEHGDLHAWARGTAAQQARDCLQAATTLTQSSTSTVDGSSDAATLGPLPITNEEDVAVLRCQYDALAAAESVVEKQLRAYSDTVQELRGWYRGELCTQQFRYELEAWLRTQEESRAVLTDLYAQMHAMRYSLQRDLSNYLHLHALGVL”, which “soluble on expression in E. coli” value is on record?
Answer: soluble

Question: For “MAHHHHHHMAKVKMNPKLSSFTANAYEKKRQVGMYSKYIVDANPSGKDPSSSQTNKGNEYEEEDIVEKLRKREQSKQGGDYFMNAYKYTQPSAIIDYSSGEEQEYSQLLKKPKCPQCGVKNCVCGFMRSGGRRAR”, which “soluble on expression in E. coli” value is on record?
Answer: soluble

Question: For “MAHHHHHHMALEIDIDNVISKLIEVRGTRPGKNVNLTENEIKILCLSSREIFLNQPILLELEAPIKICGDIHGQFYDLLRLFEYGGFPPDANYLFLGDYVDRGKQSLETICLLLAYKIKYPENFFLLRGNHECASINRIYGFYDECKRRYSVKLWKTFIDCFNCLPVAAIIDEKIFCMHGGLSPELNNMEQIRKITRPTDVPDNGLLCDLLWSDPEKEINGWGENDRGVSFTFGQDVVHNFLRKHELDLICRAHQVVEDGYEFFAKRQLVTLFSAPNYCGEFDNAGAMMSVDETLMCSFQILKPVEKKKAAN”, which “soluble on expression in E. coli” value is on record?
Answer: not soluble

Question: Which “soluble on expression in E. coli” value does the source give for “MAHHHHHHMAQNPWFVKKSKTLRTSQLEKFINKFNEEYEHLMHMTRFKYIKRTLESIKENSDLIINKKTFSILRISCVAQLQPKYLNKIDDGISVYLSNFMLKANHDVEGFCLCFNKIKLKEKESRVMNNDPSIMFVKISFKLLILVLKENYEIKAKINKIEPLKIHLDIFGIVEAIFSEDMFKDFHYDSRNNRFRREGKFFSLYDIVLFTIKKITYGDNGANVKVIGYF” here?
Answer: not soluble

Question: Which “soluble on expression in E. coli” value does the source give for “MAHHHHHHMASGGSVIGVKYNGGVLLACDTLLSYGSLAKWPNIPRMKLVGAYTVMCATGDYADFQEMTTMIENHVNRQQMYGGGALTPNEVFCYLQRHVYHKRSQFEPCLCRFVVAGCHGGEPFLGGVDDVGTRWTDDCVAAGYGAYIALPLLRQALEKPGGLTREEAIRVIKDCLRVLFYRECRAINKFQIADATSDMVSIGEPFEVETNWEYDGFCFEKTAIIR” here?
Answer: not soluble

Question: Which “soluble on expression in E. coli” value does the source give for “MAHHHHHHMCLLIIEHLFYSPCTVTTVLSLKLFGGGEKTGKMSDVPKSQVGTDAKVAVAKKYTGEYYVKGMVGDKKSFAIEHSRGRQKKHTVNEFCVGDAIGRGAFAEVFQCWRPEEPHIVYAMKKIRKDLIVKRKQSLNVHTERDLLSDAKLRQKRVSCPWITDLVVAFQDQDFLYIVTEYCSGGDLISWLIRYDVFPEETARFYFVELVLALNALHKMGYVHRDVKPDNVLIDREGHVKLADFGLSKRDPDQAESTSVADDSYLTEDVTVDDDVKKRFRDKKERKVMFFSTVGSPAYIAPEVLIGRGYDYSCDWWSAGVILYEMIFGYPPFFNDNNTATAKKIIQFKEHLEFPKDQTTVSKEAIDLISHLIADSKERYGFEEIIRHPFCKGVPLTDSIRNEKAPFSVELNSPRDLQYFEPAPDNADIQKQPMTAVSREDQSVFVGFTSKLCDRNQSTTWSRALGRFHELQNFSDDD” here?
Answer: not soluble

Question: With “MAHHHHHHMDAERGCRQCGQQGHSASQCRIKKYLCRDCGGMHDTRDCIFSHVGEDWYEFYDPKTRHVYYANSDESQIQWNPPTHELDTIYWYCSRCQVMISAKFRECLLCHSIRPESKQQETLTTDSNSDSSSSSSTSSSSSSTDTSCISRSSSSSGSASSSDSSSNDDDKRSAAGRLRDRAP” as the sequence, how does the “soluble on expression in E. coli” value read?
Answer: soluble

Question: With “MAHHHHHHMDYYRLLADIGHTYLQLIPSTAHVEKVTGLAARYCIFTITHTQMLLHCLMLWKEARLGDGGGFIDYAKVRNLKICSGAAEHTAQSNADAHSSNEGKQKWRTIDRTASLLFTLQLLEANCRYYCLVFLANYCALLLRSYSCLTDQRKVNRVHANVVEHLDMVSRLVLDLAEEYPNEYLSRLIMANLPKPSNFDRECLSSMGASSHMGSQKILSFGNDQHRHLYASGYPWSPTQSALIPLILARTVRLTVQENVSRHSQAQLRSPAERLSYHYTRWHFNSGLVIVPGCSLYMLKKSLPGFVPGKSTFAHYATMAEHEELHVPRAAADVHWQRGSAAVPVPEDGGGAAPGSHRNPRKSEDSADAEKREALTKKCEERLIKKRRHINTDLHLSDERTCVALCLEEACALALPSLLLSCVLQKATREPHFREFMNNAMNLVLGLYGPASSEWHMMASFLRKHLEG” as the sequence, how does the “soluble on expression in E. coli” value read?
Answer: not soluble

Question: With “MAHHHHHHMEDGVIISGDYIQMEKDKVKRINEHNFEQVHDVESDNLYRSKCSGILLKTPYYPYKYDIMNTSYKYMPKVGDLVIGIVKSKKLDYYQMDINCNCECIIHKIESFKYATKNSFPNLANGTLLYMIVEKINLDNNSVVASCINSSDVKSWINYENYLGELVDGYMFPVSISYAKSLIGDKCYLLDLIGADVSYEVAVGHNGR” as the sequence, how does the “soluble on expression in E. coli” value read?
Answer: not soluble

Question: For “MAHHHHHHMEKYKNILEKLEWYKNKSSEKYEFGIYEIDKREVFITTKYSYGFVNNKPLLPGHILLTTLKKKKHYNDLDIEEIIDINLLCNFMCYIMGNLFNTTDFSIAIQDGKEAGQTVDHVHIHIIPRKINDYKNNDNIYNDMNKINLGYGKNIICNSCNNTINVCSQNEIERNFKLEEFNTSIRSIEQMEEEANLIKSYINEKFSS”, which “soluble on expression in E. coli” value is on record?
Answer: not soluble

Question: For “MAHHHHHHMELEEFWLTDGSISDWGEVKKFCGFANTLRTIYVERNPIEQDKRYRDKVYMNLPFVTQIDSWPVVNKDNLEGDRLIQRRAS”, which “soluble on expression in E. coli” value is on record?
Answer: soluble

Question: Which “soluble on expression in E. coli” value does the source give for “MAHHHHHHMELNKLCSFLLRGNISHCENAPTGENAPKGENAQTGENAPKSENPPKSEHSQALFQDASGGKNNDSILDVIKKIPINPFIDSNEDLNKYKYGVEKKKIQRYTGVQVYEEEDKDHKKNQPVDYPFPVSKSVVFEKNKVNKSEDRININYSNIASDLYPEEGFKTPNRKKHFSSDWEMLLAHNHGLYNFKNTDHNTIVNKDMYALNTENDIRNKLNLYVERINVDNPNDACKYLAIEEYKCLLTHSFHMNPDVSNQKCVKWFNEYMQCKWDEHKLNYGYNYIENRRNKKSKAYIAAPDYQYS” here?
Answer: not soluble
